Results from patent US20100104555A1.

Tests used:
Assay in all cases: cell-based or functional assay
[1] = target: E1E2 Env of HCV isolate UKN2A1.2 (genotype 2a) on HCVpp (hepatitis C virus genotype 2a, isolate UKN2A1.2)
[2] = target: E1E2 Env of HCV isolate UKN1B12.16 (genotype 1b) on HCVpp (hepatitis C virus genotype 1b, isolate UKN1B12.16)
[3] = target: E1E2 Env of HCV isolate UKN4.21.16 (genotype 4) on HCVpp (hepatitis C virus genotype 4, isolate UKN4.21.16)
[4] = target: VSV (control pseudotype virus)
[5] = target: E1E2 Env of HCV isolate OH8 (genotype 1b) on HCVpp (hepatitis C virus genotype 1b, isolate OH8)
[6] = target: E1E2 Env of HCV isolate UKN5.15.7 (genotype 5) on HCVpp (hepatitis C virus genotype 5, isolate UKN5.15.7)
[7] = target: E1E2 Env of HCV isolate H (genotype 1a) on HCVpp (hepatitis C virus genotype 1a, isolate H)
[8] = target: E1E2 Env of HCV isolate J6 (genotype 2a) on HCVpp (hepatitis C virus genotype 2a, isolate J6) (UniProt P26660)
[9] = target: E1E2 Env of HCV isolate UKN2B1.1 (genotype 2b) on HCVpp (hepatitis C virus genotype 2b, isolate UKN2B1.1)

E1E2 Env of HCV isolate J6 (genotype 2a) on HCVpp (hepatitis C virus genotype 2a, isolate J6), sequence (P26660 192-750 limits assumed): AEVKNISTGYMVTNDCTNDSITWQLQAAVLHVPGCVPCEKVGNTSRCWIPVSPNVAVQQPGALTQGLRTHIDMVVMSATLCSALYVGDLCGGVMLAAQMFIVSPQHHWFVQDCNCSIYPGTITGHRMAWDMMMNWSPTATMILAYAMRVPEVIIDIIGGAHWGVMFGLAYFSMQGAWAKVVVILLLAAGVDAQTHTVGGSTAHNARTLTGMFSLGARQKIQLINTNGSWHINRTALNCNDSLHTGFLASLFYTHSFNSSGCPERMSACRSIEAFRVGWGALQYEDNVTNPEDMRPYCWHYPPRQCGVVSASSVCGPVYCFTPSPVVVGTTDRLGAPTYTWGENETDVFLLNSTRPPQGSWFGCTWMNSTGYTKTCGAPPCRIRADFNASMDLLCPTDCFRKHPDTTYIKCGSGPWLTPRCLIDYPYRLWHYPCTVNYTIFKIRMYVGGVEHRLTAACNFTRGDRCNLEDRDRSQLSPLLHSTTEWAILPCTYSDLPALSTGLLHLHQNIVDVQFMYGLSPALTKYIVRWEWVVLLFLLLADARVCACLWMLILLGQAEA
MAb AR3C (antibody), sequence (VH): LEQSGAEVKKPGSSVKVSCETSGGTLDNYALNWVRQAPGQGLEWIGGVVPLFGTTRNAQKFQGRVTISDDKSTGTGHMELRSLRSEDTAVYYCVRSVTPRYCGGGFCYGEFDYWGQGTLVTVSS
MAb AR3C (antibody), sequence (VL): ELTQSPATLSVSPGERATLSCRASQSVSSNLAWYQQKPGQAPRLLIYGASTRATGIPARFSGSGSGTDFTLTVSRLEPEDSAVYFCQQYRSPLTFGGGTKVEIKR
MAb AR2A (antibody), sequence (VH): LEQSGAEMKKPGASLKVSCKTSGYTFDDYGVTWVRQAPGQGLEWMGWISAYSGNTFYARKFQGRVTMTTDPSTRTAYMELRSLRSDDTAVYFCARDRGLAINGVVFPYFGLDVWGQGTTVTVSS
MAb AR2A (antibody), sequence (VL): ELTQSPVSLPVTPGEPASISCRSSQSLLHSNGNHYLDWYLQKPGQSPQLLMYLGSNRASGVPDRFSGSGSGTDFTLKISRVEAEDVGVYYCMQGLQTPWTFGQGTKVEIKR
MAb AR3B (antibody), sequence (VH): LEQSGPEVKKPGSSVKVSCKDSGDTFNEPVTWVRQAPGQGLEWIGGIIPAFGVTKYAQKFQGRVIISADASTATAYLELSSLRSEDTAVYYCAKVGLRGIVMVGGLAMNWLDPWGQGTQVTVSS
MAb AR3B (antibody), sequence (VL): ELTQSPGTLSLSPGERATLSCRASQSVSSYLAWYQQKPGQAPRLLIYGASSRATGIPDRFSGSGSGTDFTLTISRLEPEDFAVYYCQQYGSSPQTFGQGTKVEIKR
MAb AR1B (antibody), sequence (VH): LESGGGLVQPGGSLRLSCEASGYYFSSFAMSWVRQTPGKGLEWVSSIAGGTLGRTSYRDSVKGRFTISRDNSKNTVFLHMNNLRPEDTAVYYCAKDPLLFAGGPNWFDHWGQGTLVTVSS
MAb AR1B (antibody), sequence (VL): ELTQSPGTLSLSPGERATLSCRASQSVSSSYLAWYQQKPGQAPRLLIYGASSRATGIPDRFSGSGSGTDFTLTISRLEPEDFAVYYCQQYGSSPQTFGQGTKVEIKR

| Substance | Neutralizing activity (IC50), HCVpp [1] | Neutralizing activity (IC50), HCVpp [2] | Neutralizing activity (IC50), HCVpp [3] | Neutralizing activity (IC50), control pseudotype [4] | Neutralizing activity (IC50), HCVpp [5] | Neutralizing activity (IC50), HCVpp [6] | Neutralizing activity (IC50), HCVpp [7] | Neutralizing activity (IC50), HCVpp [8] | Neutralizing activity (IC50), HCVpp [9] |
| --- | --- | --- | --- | --- | --- | --- | --- | --- | --- |
| MAb AR2A (antibody) | 5 µg/mL | > 50 µg/mL | 1 µg/mL | > 50 µg/mL | > 50 µg/mL | 10 µg/mL | 5 µg/mL | > 50 µg/mL | 10 µg/mL |
| MAb AR3C (antibody) | 10 µg/mL | 1 µg/mL | 1 µg/mL | > 50 µg/mL | 5 µg/mL | 1 µg/mL | 1 µg/mL | 10 µg/mL | 10 µg/mL |
| MAb AR1A (antibody) | > 50 µg/mL | > 50 µg/mL | > 50 µg/mL | > 50 µg/mL | > 50 µg/mL | > 50 µg/mL |  | > 50 µg/mL | > 50 µg/mL |
| MAb AR1B (antibody) | > 50 µg/mL | > 50 µg/mL | > 50 µg/mL | > 50 µg/mL | > 50 µg/mL | > 50 µg/mL |  | > 50 µg/mL | > 50 µg/mL |
| MAb AR3D (antibody) | 25 µg/mL | 1 µg/mL | 1 µg/mL | > 50 µg/mL | 5 µg/mL | 10 µg/mL | 1 µg/mL | 50 µg/mL | 25 µg/mL |
| MAb AR3B (antibody) | 5 µg/mL | 1 µg/mL | 1 µg/mL | > 50 µg/mL | 5 µg/mL | 1 µg/mL | 1 µg/mL | 10 µg/mL | 10 µg/mL |
